From the supplement of paper PMC12764529
± gives the half width of the 95% confidence interval.

Tests used:
[1] = folding stability dG unfold from trypsin proteolysis; higher = more stable
How it was run: (§1)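 Designed mini-proteins with no cysteine and under 80 residues were kept only if AlphaFold2 dimer inter-PAE was above 15. In a PA-tagged cDNA display construct, they were digested with trypsin and chymotrypsin and then sequenced. K50 was inferred by Bayesian fitting of counts, and unfolding free energy was derived per protease or combined against a sequence-predicted unfolded-state K50 and a shared folded-state K50.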

[2] = folding stability dG unfold from chymotrypsin proteolysis; higher = more stable
How it was run: as §1

[3] = folding stability dG unfold (combined trypsin and chymotrypsin); higher = more stable
How it was run: as §1

Sequence | folding stability dG unfold [1] [kcal/mol] | folding stability dG unfold [2] [kcal/mol] | folding stability dG unfold [3] [kcal/mol]
SMSPEIVEKIRKFLEEKGYSFTVERIPETGKVIINIDVRGNGKTRRVNIVFDENDPEKGIDLIKEIIESGSA [r9_42_TrMRF] | 3.51 ± 0.1 | 4.5 ± 0.076 | 4.22 ± 0.085
SAGGSAGGSAGITIRDPDNGMWIQIEKTPDMFKVEIEMPGNGKKVEFTFPPGQSLDDLKISAGGSAGGSAGG [r11_772_TrROS] | 0.508 ± 0.037 | 0.473 ± 0.085 | 0.571 ± 0.12
SAGGMLVRVRFRIVEPGTGEPFEFEALLFFGEDGSFELVFPDGTRLLFPPEARIEVLDAELLDPDEASAGGS [r16_223_TrMRF] | 3.96 ± 0.19 | 4.9 ± 0.11 | 4.61 ± 0.2
SAGGSAMEELKEKVLEAWKKLTPDTPVTIKEINPEKKEITIETTSEEAKEKLKKAAKEMGIKIKIKSAGGSA [r15_196_JUSTAS] | 0.71 ± 0.27 | 1.28 ± 0.33 | 0.63 ± 0.39
SAGSPSMVVTVRLTVTTTDPVTGTTTTTTLDIPVSPASLSTPPAQVAAALTAAAPATTIDVTVDSVLLSAGG [r19_189_JUSTAS] | 1.794 ± 0.017 | 1.06 ± 0.06 | 1.51 ± 0.037
SAGSITIDGLTPDKEQEVKITVTLPLPGGGTVTLELTAKVTYDPATGLAKMPITLPDGTVLPLTLPLPESAG [r5_743_JUSTAS] | 2.21 ± 0.12 | 1.93 ± 0.074 | 2.1 ± 0.093
SAEVEVELVEVNGKLFLVMKVKEKDENGKEREYLVVVEVEFDPETKKLTVKVYVFPSKEEAEEALKKLLSAG [r14_500_TrROS_Hall] | 3.92 ± 0.52 | 5.26 ± 0.45 | > 6
SAGGSAGGSAGGKFEIVEVKEEYTLPNGKKVKVFTVKNKDTGKEITFIVDSNGNLKPYPSAGGSAGGSAGGS [r10_1123_TrROS_Hall] | 2.72 ± 0.13 | 2.602 ± 0.025 | 2.65 ± 0.11
SAGQLPPGETYTAEIEIRKNEPITLEEIAKKLPGYEFDSVKVEPMPDGWTRITITMTPGDVDKIQDAIRSAG [r5_554_TrROS] | 0.92 ± 0.044 | 1.87 ± 0.031 | 1.65 ± 0.092
SAGGSAGGSMKPVVDSKADPTSGPEKTLTLTLGDETVTHTVSSSESLTIPLPPNSTVSFEPLGSAGGSAGGS [r12_373_JUSTAS] | 0.791 ± 0.021 | 1.11 ± 0.02 | 1.03 ± 0.042
SAGGKWRTIQLPGISIQLNPKDGTITVMMPSDMMEELKEAFGPGFEIDEIHHHPDGWMQMTIPIKPPSAGGS [r8_415_TrROS] | 1.18 ± 0.035 | 1.75 ± 0.11 | 1.57 ± 0.15
SAGGSAGGSAGKYAIVEVNGKPVLVEFEPLPDDKVKVKIVFPDGSKVEIELKANEPIYVGSAGGSAGGSAGG [r11_525_TrMRF] | 1.75 ± 0.095 | 1.72 ± 0.076 | 1.83 ± 0.13
SYWIRITINGQTIMFPAEDADKLLGELQSNGWRIKITDIEPDPDDDWIMFKINIRPPKPPPPPPPDPDGKSA [r9_448_TrROS] | 2 ± 0.11 | 3.47 ± 0.041 | 3.17 ± 0.34
SAGGSPIKPITFEFPNIKVTVYRMPNKYIMVHIEFRENGEPYYLMITFKLDPDNKLKATSIGPMPPSAGGSA [r2_171_TrROS] | 2.69 ± 0.1 | 4.537 ± 0.037 | 4.01 ± 0.093
SAMKEMTAEELAKKLEEELRKLFPDVEIKVEIVEVKEDYVVIKVEITVRLKKPDGKEVEFKLELVLKVDSAG [r14_187_TrROS_Hall] | 3.1 ± 0.41 | 3.55 ± 0.15 | 3.4 ± 0.32
SAGKVEIIPIENEDGSKFLVIKVNGKLIIITENEDGSISIKIIDLKTNKIEVIEIPKKDLKKALEKILKSAG [r5_674_TrROS_Hall] | 3.82 ± 0.18 | 3.48 ± 0.12 | 3.59 ± 0.2
SAGGSAGMTVTKTFTLPGYKVELTTHPGLPPDAPVTIEVTLTPPDGSVVKSTRTVLARPDDPSVLLSAGGSA [r15_10_JUSTAS] | 2.15 ± 0.13 | 2.73 ± 0.12 | 2.46 ± 0.16
MLLVKAEFTIKNSDGTEETFTVLVEVPESEEEAEEAVEKEIEKIAEEKGLSTENITEIKVEIYPPSEPVKPS [r1_159_JUSTAS] | 2.1 ± 0.098 | 2.7 ± 0.077 | 2.48 ± 0.081
SAGGMKIEIKIIDEETGEEITITVTMTPEEIEKLAKELEEKYPGLEIVSVEIEEKDGEIIITIKIKKKSAGG [r13_196_TrROS_Hall] | 3.75 ± 0.25 | 2.71 ± 0.071 | 3.29 ± 0.21
SAGGSAGGSAMTRDVTIKVPPGVTPEEVFEKLKKENPNVTSYTTTTLPDGTITVTITIEDSSAGGSAGGSAG [r3_371_JUSTAS] | 3.94 ± 0.23 | 4.04 ± 0.12 | 4.05 ± 0.19
SAGGSAGGSAGGKPKKVVIYIELTPEQEEAIKKGKSLEEVVEELIKEAEKKGLEVEIVGSAGGSAGGSAGGS [r10_890_TrROS_Hall] | 1.2 ± 0.029 | 1.93 ± 0.067 | 1.62 ± 0.14
